Details in all cases: 1 mM MgCl2, 0.5 mM EDTA, 0.5 mM DTT, 50 mM NaCl, 10 mM Tris-HCl pH 7.5, 0.05 mg/ml poly(dI-dC), 10 ul, room temperature 30 min; footprinting in same buffer …
Data set [1] deals with T1, His-AphA (Vibrio parahaemolyticus RIMD 2210633) (UniProt Q87L53).
T1 sequence: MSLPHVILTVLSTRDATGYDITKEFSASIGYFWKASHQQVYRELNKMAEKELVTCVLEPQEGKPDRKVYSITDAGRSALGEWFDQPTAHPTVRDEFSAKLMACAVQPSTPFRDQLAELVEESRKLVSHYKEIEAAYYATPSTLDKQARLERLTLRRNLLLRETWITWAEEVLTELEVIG
Briefly: DNase I footprinting.

Data set [2] deals with T1, His-AphA (Vibrio parahaemolyticus RIMD 2210633). Briefly: EMSA.
Data set [3] has the same target. Description: competition.

Regarding “AGTGGGTTGAAAGTCACATCCTTTTGCGGAAAATTCTTGGGAGCGCTGCCAAATTTTCGAAAGTTTACAGCAAAACTTATCAATAATAATGACATTACTGTCTATAAATTATCCATCAGATGTTGACCTTGTGCATATGCACCATTACACTCATCACTGCTTAAAGCAATTATTAAAATAATCAATTAGGGGGTTACCCCCAACAACAACTCAAATGGCAAGGAAAATGGATATGGACTCAATTGCAAAGAGACCTAGAACTAGGC (double strand) [opaR promoter fragment (footprinting)]”, in data set [1], the binding entry is given as “binds”. As for “CGACGCATTATTAACCAGCACTTTCGCAAATTGCATTTGCAAAATGCAATAGCATGCAAATATGCCACTTGTTACATTGCTACTAATCACTTTCTCAGCAAAAAACCAACTACTACTTTATGATTATCCATTAGCTTTCATATTTTTACCCTATACTGCTAATTAATGAGGAAAAATACCTCAGTAAATGGATTTCACGGTT (double strand) [qrr4 promoter fragment]”, the binding entry in data set [1] and in data set [2] was “binds” each time.

With “AGTGGTTGCTTATGAATCAATCCCAGGAAAAGGCGAGAACAGCGAACCTTCAACTCGTTAACATTTTATTTTCATTTACATTTTGACTAACTCAATTGTTAATAAATTACCTAAATTGCATTTTGAAATTGCAGAATGCAATTAAGTTTTGTTTTTTGCAAAAATTTATATAGGCAATATCAGTTTATATGAGATCTTGTGCCCAAAAATAAAGCTTTGAAAATTGGCATGATTAATGCATAATACTTCTCGACC (double strand) [qrr2 promoter fragment]”, the binding result in data set [2] is recorded as “no binding”.

Take “AACTTCCAACCACATAATTGCGCAGCAAATAACCAGACATTTACACTACAAAAAACCCATAAAATACCAACAAATTAGAATTATTAACTACAAAATAACTCTATTGAGTATTATGTTAGTTTTTCAGGGTAATTTTGTCCTAGTATTCCACTTCATGCTTATTATTTATATACTACTTGCCTGCTGAGAGCTCATAAATCCAATCATACCTGCTCCAGCC (double strand) [aphA promoter fragment]”: the binding result in data set [3], in data set [1] and in data set [2] was “binds” throughout. On to “GGATAAGTTCAAATTGGATCCAGCCTTAGCAGGCTCGGTTATTCTAACGACAGTGACAGATGTGGTTGGTTTTTTCGCCTTTTTGGGAACGGCGAGTTTAGTCATGCTCTAAAAAGTCCACTGTTTATTAATCAATCATTAGCATAATAGAGACAAATTGCATAACGCACTTGCAAATTGCAAAAACATTCAAAGTTTAAGCAACGTATGTCACAGAAACCAC (double strand) [qrr3 promoter fragment]”, for which the binding entry in data set [2] was “no binding”.
